# ± gives the uncertainty stated by the source.
# Assay: self-splicing fitness, log relative to wild type (ln ratio); higher = more splicing; Tetrahymena group I intron in knt gene, E. coli kanamycin selection, DiMSum; sequences stand for … in CUCUCU…GGAGGGAAAAGUUAUCAGGCAUGCACCUGGUAGCUAGUCUUUAAACCAAUAGAUUGCAUCGGUUUAAAAGGCAAGACCGUCAAAUUGCGGGAAAGGGGUCAACAGCCGUUCAGUACCAAGUCUCAGGGGAAACUUUGAGAUGGCCUUGCAAAGGGUAUGGUAAUAAGCUGACGGACAUGGUCCUAACCACGCAGCCAAGUCCUAAGUCAACAGAUCUUCUGUUGAUAUGGAUGCAGUUCACAGACUAAAUGUCGGUCGGGGAAGAUGUAUUCUUCUCAUAAGAUAUAGUCGGACCUCUCCUUAAUGGGAGCUAGCGGAUGAAGUGAUGCAACACUGGAGCCGCUGGGAACUAAUUUGUAUGCGAAAGUAUAUUGAUUAGUUUUGGAGUACUCGUGGUCG
# Summary of the method: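 DiMSum derived fitness as the error-weighted combination of fold changes across replicates, kanamycin versus no kanamycin, normalised to wild type. E. coli BL21(DE3) held the library, which randomised all eight P1ex-region intron nucleotides within the knt kanamycin-resistance gene on pET-22b(+). Six replicate transformations grew overnight at 37°C or 30°C on LB agar with or without 25 μg/mL kanamycin, also containing 100 μg/mL carbenicillin, 50 μM IPTG and 0.2% rhamnose, and pooled colonies were amplicon-sequenced on an Illumina HiSeq 2500.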
Sequence,self-splicing fitness (ln) (30 °C),self-splicing fitness (ln) (37 °C)
CGAAAGCAAUAUUACGAGGA,-3.36 ± 0.25,-1.13 ± 0.21
UCCUAGCAAUAUUACGACGC,-2.35 ± 0.17,-2.02 ± 0.2
ACGGAGCAAUAUUACGGAAU,-1.57 ± 0.39,-2.5 ± 0.45
CAGGAGCAAUAUUACGGGAC,-2.88 ± 0.25,-3.24 ± 0.29
GUUAAGCAAUAUUACGACGA,-1.13 ± 0.11,-1.14 ± 0.12
GAAGAGCAAUAUUACGAUAU,-4.88 ± 0.36,-1.06 ± 0.14
UGUAAGCAAUAUUACGCAAU,-3.44 ± 0.18,-3.36 ± 0.2
UUGUAGCAAUAUUACGGUGC,-2.37 ± 0.45,-2.07 ± 0.34
UCCCAGCAAUAUUACGGCAU,-2.77 ± 0.11,-1.01 ± 0.11
CAGUAGCAAUAUUACGGGGG,-3.48 ± 0.33,-2.02 ± 0.42
CAUGAGCAAUAUUACGCGAC,–,-2.84 ± 0.44
UAGUAGCAAUAUUACGCGUC,-3.22 ± 0.38,-1.88 ± 0.36
UGUGAGCAAUAUUACGGUGU,-3 ± 0.31,-2.84 ± 0.24
CAAAAGCAAUAUUACGAUCG,0.0933 ± 0.07,0.514 ± 0.09
GUACAGCAAUAUUACGGCGC,-0.365 ± 0.082,-0.0882 ± 0.095
UAGAAGCAAUAUUACGAGGC,–,-2.21 ± 0.42
CUGUAGCAAUAUUACGGAUU,-3.48 ± 0.28,-2.7 ± 0.33
GAUAAGCAAUAUUACGUUAA,-3.91 ± 0.43,-1.52 ± 0.17
AUCGAGCAAUAUUACGUCGU,-2.19 ± 0.13,-1.2 ± 0.14
ACUCAGCAAUAUUACGGUUG,-4.32 ± 0.17,-2.77 ± 0.18
UGAGAGCAAUAUUACGACUC,-2.96 ± 0.47,-2.73 ± 0.45

Sequence,self-splicing fitness (ln) (30 °C),self-splicing fitness (ln) (37 °C)
AUCUAGCAAUAUUACGAAAA,–,-2.38 ± 0.33
GUCGAGCAAUAUUACGCCAA,-2.68 ± 0.35,-2.6 ± 0.48
GGCAAGCAAUAUUACGCGCA,0.145 ± 0.077,0.461 ± 0.11
GUGUAGCAAUAUUACGGACU,-0.979 ± 0.1,-0.103 ± 0.12
GUGUAGCAAUAUUACGUUAA,-2.21 ± 0.2,-1.8 ± 0.16
GACUAGCAAUAUUACGUGAG,-2.07 ± 0.1,-1.54 ± 0.14
GUGUAGCAAUAUUACGCUAC,-2.35 ± 0.49,–
UCCAAGCAAUAUUACGCAAA,-2.18 ± 0.24,-0.843 ± 0.17
UAGUAGCAAUAUUACGAAAC,–,-2.13 ± 0.45
GUUCAGCAAUAUUACGCGUA,-0.404 ± 0.12,-0.287 ± 0.15
UUAUAGCAAUAUUACGUGGU,-3.55 ± 0.35,-3.15 ± 0.35
ACGGAGCAAUAUUACGGUGU,-3.78 ± 0.2,-2.35 ± 0.16
UCCAAGCAAUAUUACGUCUC,-3.53 ± 0.32,-2.02 ± 0.46
GCUCAGCAAUAUUACGCCAA,-1.52 ± 0.42,–
GUCGAGCAAUAUUACGCAAA,-2.51 ± 0.39,–
GGUAAGCAAUAUUACGCUGC,-2.94 ± 0.2,–
UUCAAGCAAUAUUACGCUAC,-3 ± 0.25,-1.52 ± 0.26
UGAUAGCAAUAUUACGGUUU,-2.91 ± 0.097,-1.38 ± 0.11
GGGCAGCAAUAUUACGGAUA,-2.63 ± 0.17,-1.8 ± 0.13
CGUUAGCAAUAUUACGCACG,-1.99 ± 0.31,–
